Reference: patent US20190345557
Substitutions are numbered along the chain they refer to.

B1: Human full-length ARHGEF26 (wild-type) with N-terminal His-SUMO tag (protein)
chain: MDGESEVDFSSNSITPLWRRRSIPQPHQVLGRSKPRPQSYQSPNGLLITDFPVEDGGTLLAAQIPAQVPTASDSRTVHRSPLLLGAQRRAVANGGTASPEYRAASPRLRRPKSPKLPKAVPGGSPKSPANGAVTLPAPPPPPVLRPPRTPNAPAPCTPEEDLTGLTASPVPSPTANGLAANNDSPGSGSQSGRKAKDPERGLFPGPQKSSSEQKLPLQRLPSQENELLENPSVVLSTNSPAALKVGKQQIIPKSLASEIKISKSNNQNVEPHKRLLKVRSMVEGLGGPLGHAGEESEVDNDVDSPGSLRRGLRSTSYRRAVVSGFDFDSPTSSKKKNRMSQPVLKVVMEDKEKFSSLGRIKKKMLKGQGTFDGEENAVLYQNYKEKALDIDSDEESEPKEQKSDEKIVIHHKPLRSTWSQLSAVKRKGLSQTVSQEERKRQEAIFEVISSEHSYLLSLEILIRMFKNSKELSDTMTKTERHHLFSNITDVCEASKKFFIELEARHQNNIFIDDISDIVEKHTASTFDPYVKYCTNEVYQQRTLQKLLATNPSFKEVLSRIESHEDCRNLPMISFLILPMQRVTRLPLLMDTICQKTPKDSPKYEVCKRALKEVSKLVRLCNEGARKMERTEMMYTINSQLEFKIKPFPLVSSSRWLVKRGELTAYVEDTVLFSRRTSKQQVYFFLFNDVLIITKKKSEESYNVNDYSLRDQLLVESCDNEELNSSPGKNSSTMLYSRQSSASHLFTLTVLSNHANEKVEMLLGAETQSERARWITALGHSSGKPPADRTSLTQVEIVRSFTAKQPDELSLQVADVVLIYQRVSDGWYEGERLRDGERGWFPMECAKEITCQATIDKNVERMGRLLGLETNV
B2: Human full-length ARHGEF26 29Leu mutant (p.Val29Leu) with N-terminal His-SUMO tag (protein)
chain: B1 chain with V29L

Target: Human RhoG (residues 1-188) with N-terminal His-SUMO tag, pre-loaded with GDP, P84095
Sequence (P84095 1-188): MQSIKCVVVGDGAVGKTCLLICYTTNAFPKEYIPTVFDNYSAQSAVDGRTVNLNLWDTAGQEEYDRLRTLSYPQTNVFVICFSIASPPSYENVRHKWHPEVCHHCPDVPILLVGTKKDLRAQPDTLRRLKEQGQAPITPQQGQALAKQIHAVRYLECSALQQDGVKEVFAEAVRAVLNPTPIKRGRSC

| Protein | nucleotide exchange activity (GTP-GDP nucleotide exchange assay, MANT-GTP fluorescence, 60 minutes) |
| --- | --- |
| B1 | we observed no significant difference in nucleotide exchange activity between wild-type and 29Leu mutant ARHGEF26 |
| B2 | we observed no significant difference in nucleotide exchange activity between wild-type and 29Leu mutant ARHGEF26 |
